The results in this text go back to US12269859B2, “Synthetic immune receptors and methods of use thereof” (Angeles Therapeutics, Inc., priority 2016, dated 2025).

This test has as its system target antigen-expressing cell line. The experiment in a line: Jurkat NFAT-GFP assay, coculture with target cell lines expressing the respective target antigen (summary Table 10A). In kind it is cell-based, human. More on the design: key: The signs +/−, +, 2+ etc. after the name of the cell lines indicate the relative degree of positivity on the Jurkat-NFAT-GFP assay as measured by the % GFP positive cells; +: relative degree of positivity on the Jurkat-NFAT-GFP assay as measured by the % GFP positive cells; 2+: relative degree of positivity on the Jurkat-NFAT-GFP assay as measured by the % GFP positive cells. The conditions noted are these: relative % GFP positive cells; for NFAT-GFP ASSAY Positive Cell lines: RAJI: SIR-expressing Jurkat-NFAT-GFP cells cocultured with RAJI; for NFAT-GFP ASSAY Positive Cell lines: NALM6: SIR-expressing Jurkat-NFAT-GFP cells cocultured with NALM6. Summed up:
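Positivity is scored when SIR-expressing reporter Jurkat cells show more GFP-positive cells than parental controls after coculture with the antigen-bearing line. Effector-to-target ratio is about 1:2, coculture lasts roughly 4–18 hours, and GFP is quantified by FACS.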

B1: 012617-O05 (protein)
chain: MALPVTALLLPLALLLHAARPLEGKPIPNPLLGLDSTGSGEDLKNVFPPEVAVFEPSKAEIAHTQKATLVCLATGFYPDHVELSWWVNGKEVHSGVCTDPQPLKEQPALNDSRYCLSSRLRVSATFWQNPRNHFRCQVQFYGLSENDEWTQDRAKPVTQIVSAEAWGRADCGITSASYHQGVLSATILYEILLGKATLYAVLVSALVLMAMVKRKDSRGRAKRSGSGATNFSLLKQAGDVEENPGPTSMALPVTALLLPLALLLHAARPDILLTQSPATLSLSPGERATLSCKASQNVGTNVAWYQQKPGQPPKLLIYSATYRNSGIPARFSGSGSGTEFTLTITNVQSKDLADYFYFCQYNRYPYTSGGGTKLEIKRGGGGSGGGGSGGGGSQVQLVESGGGLVEPGGSLRLSCMSGYAFSSYWMNWVRQMPGKGLEWMGQIYPGDGDTNYNGKFKGRVTITADESTSTAYMELSSLKAEDTAVYFCARKTISSVVDFYFDNWGQGTLVTVSSTREQKLISEEDGSGIQNPDPAVYQLRDSKSSDKSVCLFTDFDSQTNVSQSKDSDVYITDKCVLDMRSMDFKSNSAVAWSNKSDFACANAFNNSIIPEDTFFPSSDVPCDVKLVEKSFETDTNLNFQNLSVIGFRILLLKVAGFNLLMTLRLWSSRAKRSGSGVKQTLNFDLLKLAGDVESNPGPSRGHMTEYKPTVRLATRDDVPRAVRTLAAAFADYPATRHTVDPDRHIERVTELQELFLTRVGLDIGKVWVADDGAAVAVWTTPESVEAGAVFAEIGPRMAELSGSRLAAQQQMEGLLAPHRPKEPAWFLATVGVSPDHQGKGLGSAVVLPGVEAAERAGVPAFLETSAPRNLPFYERLGFTVTADVEVPEGPRTWCMTRKPGA
In the case of B1, the “NFAT-GFP ASSAY Positive Cell lines: RAJI” value is recorded as “RAJI (+/−)”.

B2: 020717-P08 (protein)
chain: MALPVTALLLPLALLLHAARPDILLTQSPATLSLSPGERATLSCKASQNVGTNVAWYQQKPGQPPKLLIYSATYRNSGIPARFSGSGSGTEFTLTITNVQSKDLADYFYFCQYNRYPYTSGGGTKLEIKRLEGKPIPNPLLGLDSTGSGEDLKNVFPPEVAVFEPSKAEIAHTQKATLVCLATGFYPDHVELSWWVNGKEVHSGVCTDPQPLKEQPALNDSRYCLSSRLRVSATFWQNPRNHFRCQVQFYGLSENDEWTQDRAKPVTQIVSAEAWGRADCGITSASYHQGVLSATILYEILLGKATLYAVLVSALVLMAMVKRKDSRGRAKRSGSGATNFSLLKQAGDVEENPGPTSMDWIWRILFLVGAATGAHSFEQVQLVESGGGLVEPGGSLRLSCMSGYAFSSYWMNWVRQMPGKGLEWMGQIYPGDGDTNYNGKFKGRVTITADESTSTAYMELSSLKAEDTAVYFCARKTISSVVDFYFDNWGQGTLVTVSSAEPKSPDKTHTCPPCPKDPKTREQKLISEEDLGSGIQNPDPAVYQLRDSKSSDKSVCLFTDFDSQTNVSQSKDSDVYITDKCVLDMRSMDFKSNSAVAWSNKSDFACANAFNNSIIPEDTFFPSSDVPCDVKLVEKSFETDTNLNFQNLSVIGFRILLLKVAGFNLLMTLRLWSSRAKRSGSGVKQTLNFDLLKLAGDVESNPGPSRGHMTEYKPTVRLATRDDVPRAVRTLAAAFADYPATRHTVDPDRHIERVTELQELFLTRVGLDIGKVWVADDGAAVAVWTTPESVEAGAVFAEIGPRMAELSGSRLAAQQQMEGLLAPHRPKEPAWFLATVGVSPDHQGKGLGSAVVLPGVEAAERAGVPAFLETSAPRNLPFYERLGFTVTADVEVPEGPRTWCMTRKPGA
As for B2, the “NFAT-GFP ASSAY Positive Cell lines: RAJI” value is “RAJI (+)”.

B3: 041416-U01 (protein)
chain: MALPVTALLLPLALLLHAARPDIVLTQSPATLSLSPGDRATISCRASESVTILGSHLIYWYQQKPGQPPRLLIQLASNVQTGVPARFSGSGSRTDFTLTISSVEPEDFAVYYCLQSRTIPRTFGQGTKLEIKRLEGKPIPNPLLGLDSTGSGEDLKNVFPPEVAVFEPSKAEIAHTQKATLVCLATGFYPDHVELSWWVNGKEVHSGVCTDPQPLKEQPALNDSRYCLSSRLRVSATFWQNPRNHFRCQVQFYGLSENDEWTQDRAKPVTQIVSAEAWGRADCGITSASYHQGVLSATILYEILLGKATLYAVLVSALVLMAMVKRKDSRGRAKRSGSGATNFSLLKQAGDVEENPGPTSMDWIWRILFLVGAATGAHSFEQVQLVQSGPEVKKPGESVKISCKASGYTFRHYSMNWVKQAPGQGLKWMGRINTESGVPIYADDFKGRFSFTVDTSASTAYLEISSLTSEDTAVYFCSNDYLYSLDFWGQGTTLTVSSTREQKLISEEDGSGTPFPSLAPPIMLLVDGKQQMVVVCLVLDVAPPGLDSPIWFSAGNGSALDAFTYGPSPATDGTWTNLAHLSLPSEELASWEPLVCHTGPGAEGHSRSTQPMHLSGEASTARTCPQEPLRGTPGGALWLGVLRLLLFKLLLFDLLLTCSCLCDPAGPLPSPATTTRLRALGSHRLHPATETGGREATSSPRPQPRDRRWGDTPPGRKPGSPVRAKRSGSGVKQTLNFDLLKLAGDVESNPGPSRGHMTEYKPTVRLATRDDVPRAVRTLAAAFADYPATRHTVDPDRHIERVTELQELFLTRVGLDIGKVWVADDGAAVAVWTTPESVEAGAVFAEIGPRMAELSGSRLAAQQQMEGLLAPHRPKEPAWFLATVGVSPDHQGKGLGSAVVLPGVEAAERAGVPAFLETSAPRNLPFYERLGFTVTADVEVPEGPRTWCMTRKPGA
modifications: Polynucleotide encoding a Synthetic Immune Receptor (SIR)
As for B3, the “NFAT-GFP ASSAY Positive Cell lines: L363” value (SIR-expressing Jurkat-NFAT-GFP cells cocultured with L363) is “L363 (2+), U266”. Under “SIR-expressing Jurkat-NFAT-GFP cells cocultured with U266”, the “NFAT-GFP ASSAY Positive Cell lines: U266” value is listed as “(2+)”.

B4: 022817-L08 (protein)
chain: MALPVTALLLPLALLLHAARPDIVMTQSPATLSLSPGERATLSCRSSKSLQNVNGNTYLYWFQQKPGQSPQLLIYRMSNLNSGVPDRFSGSGSGTEFTLTISSLEPEDFAVYYCMQHLEYPITFGAGTKLEIKLEEQKLISEEDLGSGEDLKNVFPPEVAVFEPSKAEIAHTQKATLVCLATGFYPDHVELSWWVNGKEVHSGVCTDPQPLKEQPALNDSRYCLSSRLRVSATFWQNPRNHFRCQVQFYGLSENDEWTQDRAKPVTQIVSAEAWGRADCGITSASYHQGVLSATILYEILLGKATLYAVLVSALVLMAMVKRKDSRGRAKRSGSGATNFSLLKQAGDVEENPGPTSMDWIWRILFLVGAATGAHSFEEVQLVESGGGLVKPGGSLKLSCAASGYTFTSYVMHWVRQAPGKGLEWIGYINPYNDGTKYNEKFQGRVTISSDKSISTAYMELSSLRSEDTAMYYCARGTYYYGTRVFDYWGQGTLVTVSSTREQKLISEEDLGSGIQNPDPAVYQLRDSKSSDKSVCLFTDFDSQTNVSQSKDSDVYITDKCVLDMRSMDFKSNSAVAWSNKSDFACANAFNNSIIPEDTFFPSSDVPCDVKLVEKSFETDTNLNFQNLSVIGFRILLLKVAGFNLLMTLRLWSSRAKRSGSGVKQTLNFDLLKLAGDVESNPGPSRGHMTEYKPTVRLATRDDVPRAVRTLAAAFADYPATRHTVDPDRHIERVTELQELFLTRVGLDIGKVWVADDGAAVAVWTTPESVEAGAVFAEIGPRMAELSGSRLAAQQQMEGLLAPHRPKEPAWFLATVGVSPDHQGKGLGSAVVLPGVEAAERAGVPAFLETSAPRNLPFYERLGFTVTADVEVPEGPRTWCMTRKPGA
Regarding B4, the “NFAT-GFP ASSAY Positive Cell lines: NALM6” value is “(2+)”.

B5: 012417-I04 (protein)
chain: MALPVTALLLPLALLLHAARPLEGKPIPNPLLGLDSTGSGEDLKNVFPPEVAVFEPSKAEIAHTQKATLVCLATGFYPDHVELSWWVNGKEVHSGVCTDPQPLKEQPALNDSRYCLSSRLRVSATFWQNPRNHFRCQVQFYGLSENDEWTQDRAKPVTQIVSAEAWGRADCGITSASYHQGVLSATILYEILLGKATLYAVLVSALVLMAMVKRKDSRGRAKRSGSGATNFSLLKQAGDVEENPGPTSMALPVTALLLPLALLLHAARPDILLTQSPATLSLSPGERATLSCRASQSVDYDGDSYLNWYQQKPGQPPKLLIYDASNLVSGIPPRFSGSGSGTDFTLTISRLEPEDFAVYHCQQSTEDPWTFGGGTKLEIKGGGGSGGGGSGGGGSQVQLVESGGGLVEPGGSLRLSCMSGYAFSSYWMNWVRQMPGKGLEWMGQIWPGDGDTNYNPSLKSRVTITADESTSTAYMELSSLKAEDTAVYFCARRETTTVGRYYYAMDYWGQGTLVTVSSTREQKLISEEDGSGIQNPDPAVYQLRDSKSSDKSVCLFTDFDSQTNVSQSKDSDVYITDKCVLDMRSMDFKSNSAVAWSNKSDFACANAFNNSIIPEDTFFPSSDVPCDVKLVEKSFETDTNLNFQNLSVIGFRILLLKVAGFNLLMTLRLWSSRAKRSGSGVKQTLNFDLLKLAGDVESNPGPSRGHMTEYKPTVRLATRDDVPRAVRTLAAAFADYPATRHTVDPDRHIERVTELQELFLTRVGLDIGKVWVADDGAAVAVWTTPESVEAGAVFAEIGPRMAELSGSRLAAQQQMEGLLAPHRPKEPAWFLATVGVSPDHQGKGLGSAVVLPGVEAAERAGVPAFLETSAPRNLPFYERLGFTVTADVEVPEGPRTWCMTRKPGA
As for B5, the “NFAT-GFP ASSAY Positive Cell lines: RAJI” value is recorded as “RAJI (+/−)”.

B6: 011317-B06 (protein)
chain: MALPVTALLLPLALLLHAARPLEQKLISEEDLGSGDRPDPAVYQLRDSKSSDKSVCLFTDFDSQTNVSQSKDSDVYITDKCVLDMRSMDFKSNSAVAWSNKSDFACANAFNNSIIPEDTFFPSPESSCDVKLVEKSFETDTNLNFQNLSVIGFRILLLKVAGFNLLMTLRLWSSSSRAKRSGSGVKQTLNFDLLKLAGDVESNPGPTSMALPVTALLLPLALLLHAARPDIVMTQSPATLSLSPGERATLSCRSSKSLQNVNGNTYLYWFQQKPGQSPQLLIYRMSNLNSGVPDRFSGSGSGTEFTLTISSLEPEDFAVYYCMQHLEYPITFGAGTKLEIKGGGGSGGGGSGGGGSEVQLVESGGGLVKPGGSLKLSCAASGYTFTSYVMHWVRQAPGKGLEWIGYINPYNDGTKYNEKFQGRVTISSDKSISTAYMELSSLRSEDTAMYYCARGTYYYGTRVFDYWGQGTLVTVSSTRGKPIPNPLLGLDSTGSGEDLKNVFPPEVAVFEPSEAEISHTQKATLVCLATGFYPDHVELSWWVNGKEVHSGVCTDPQPLKEQPALNDSRYCLSSRLRVSATFWQNPRNHFRCQVQFYGLSENDEWTQDRAKPVTQIVSAEAWGRADCGFTSESYQQGVLSATILYEILLGKATLYAVLVSALVLMAMVKRKDSRGRAKRSGSGATNFSLLKQAGDVEENPGPSRGHMTEYKPTVRLATRDDVPRAVRTLAAAFADYPATRHTVDPDRHIERVTELQELFLTRVGLDIGKVWVADDGAAVAVWTTPESVEAGAVFAEIGPRMAELSGSRLAAQQQMEGLLAPHRPKEPAWFLATVGVSPDHQGKGLGSAVVLPGVEAAERAGVPAFLETSAPRNLPFYERLGFTVTADVEVPEGPRTWCMTRKPGA
For the molecule B6, the “NFAT-GFP ASSAY Positive Cell lines: NALM6” value is given as “(2+)”.
